Legend:
mouse FAP on cells = target: T1, mouse FAP on cells (mouse, UniProt P97321 1-761); assay: cell-based binding assay
T1 construct: also called murine FAP; mFAP
T1 sequence: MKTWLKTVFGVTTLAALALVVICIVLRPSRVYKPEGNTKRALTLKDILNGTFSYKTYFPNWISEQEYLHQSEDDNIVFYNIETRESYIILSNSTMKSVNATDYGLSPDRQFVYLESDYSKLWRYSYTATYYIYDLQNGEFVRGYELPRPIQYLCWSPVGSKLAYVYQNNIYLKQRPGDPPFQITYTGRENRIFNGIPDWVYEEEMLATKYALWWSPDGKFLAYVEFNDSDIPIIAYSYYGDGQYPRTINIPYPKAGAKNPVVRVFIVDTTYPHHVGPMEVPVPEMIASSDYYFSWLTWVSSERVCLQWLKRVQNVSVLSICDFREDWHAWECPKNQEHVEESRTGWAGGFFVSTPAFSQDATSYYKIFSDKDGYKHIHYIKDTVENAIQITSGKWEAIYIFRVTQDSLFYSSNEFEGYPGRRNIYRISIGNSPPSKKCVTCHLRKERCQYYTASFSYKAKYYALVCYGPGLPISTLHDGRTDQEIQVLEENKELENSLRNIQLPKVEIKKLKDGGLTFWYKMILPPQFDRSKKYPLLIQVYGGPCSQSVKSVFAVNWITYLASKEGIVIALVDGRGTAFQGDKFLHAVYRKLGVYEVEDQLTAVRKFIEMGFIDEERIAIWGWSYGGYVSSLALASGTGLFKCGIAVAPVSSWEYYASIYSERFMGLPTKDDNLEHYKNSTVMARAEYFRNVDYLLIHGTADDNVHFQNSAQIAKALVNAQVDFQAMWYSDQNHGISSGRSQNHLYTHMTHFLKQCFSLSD

[1] = target: T2, recombinant mouse FAP (R&D Systems) (mouse, UniProt P97321 26-761); assay: ELISA, recombinant mouse FAP coated, 100 nM DARPin, anti-FLAG detection
T2 construct: also called Recombinant mFAP
T2 sequence: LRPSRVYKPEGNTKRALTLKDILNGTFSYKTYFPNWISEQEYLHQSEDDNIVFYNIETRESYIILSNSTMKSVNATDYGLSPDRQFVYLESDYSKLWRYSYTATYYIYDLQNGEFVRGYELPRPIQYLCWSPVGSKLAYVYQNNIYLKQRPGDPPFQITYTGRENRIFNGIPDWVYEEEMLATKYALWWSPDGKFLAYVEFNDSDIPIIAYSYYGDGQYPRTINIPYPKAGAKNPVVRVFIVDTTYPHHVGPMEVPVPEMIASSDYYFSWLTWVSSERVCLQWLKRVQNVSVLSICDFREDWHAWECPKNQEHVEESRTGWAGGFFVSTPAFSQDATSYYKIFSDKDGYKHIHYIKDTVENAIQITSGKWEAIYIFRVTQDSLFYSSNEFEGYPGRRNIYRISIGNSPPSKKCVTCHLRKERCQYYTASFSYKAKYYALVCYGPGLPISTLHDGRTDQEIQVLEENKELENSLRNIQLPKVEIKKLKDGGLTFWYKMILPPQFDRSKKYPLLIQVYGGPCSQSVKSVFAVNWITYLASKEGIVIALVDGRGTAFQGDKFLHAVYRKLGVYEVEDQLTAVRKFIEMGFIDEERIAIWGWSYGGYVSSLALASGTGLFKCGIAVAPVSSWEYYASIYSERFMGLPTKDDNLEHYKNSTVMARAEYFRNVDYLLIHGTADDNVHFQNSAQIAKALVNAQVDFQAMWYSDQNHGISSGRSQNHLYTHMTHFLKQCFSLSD
Method: Recombinant mFAP (R&D Systems), and recombinant maltose-binding protein (MBP; inhouse production) for a positive control, were used for a DARPin binding analysis via ELISA. Target protein was coated overnight (O/N) at 4° C. on MaxiSorp™ 96-well plates (Nunc). Blocking was performed for 2 h at RT using ELISA-blocking buffer (PBS containing 0.5% (w/v) BSA). Plates were washed with ELISA-PBS-T (PBS containing 0.05% (v/v) Tween 20). Samples were diluted (100 nM DARPin concentration) in ELISA-PBS-TB (ELISA PBS T containing 0.5% (w/v) BSA) and incubated for 1 h at 4° C. while shaking. DARPin detection was performed with rabbit anti-FLAG antibody (GenScript, A01868; 1:5,000) and goat anti-rabbit-AP antibody (Sigma Aldrich, A3687; 1:10,000), both diluted in ELISA-PBS-TB and incubated for 1 h at 4° C. while shaking. Substrate solution consisting of 3 mM p-nitrophenyl phosphate (pNPP) diluted in pNPP buffer (50 mM NaHCO₃, 50 mM MgCl₂) was used for final detection. A Tecan Infinite M1000 plate reader (Tecan) was used to measure the absorbance at 405 nm.

[2] = target: T3, human FAP (fibroblast activation protein) on HT1080hFAP cells (human, UniProt Q12884 1-760); assay: flow cytometry cell-based binding assay, HT1080hFAP against FAP-negative HT1080 cells
T3 construct: also called seprase
T3 sequence: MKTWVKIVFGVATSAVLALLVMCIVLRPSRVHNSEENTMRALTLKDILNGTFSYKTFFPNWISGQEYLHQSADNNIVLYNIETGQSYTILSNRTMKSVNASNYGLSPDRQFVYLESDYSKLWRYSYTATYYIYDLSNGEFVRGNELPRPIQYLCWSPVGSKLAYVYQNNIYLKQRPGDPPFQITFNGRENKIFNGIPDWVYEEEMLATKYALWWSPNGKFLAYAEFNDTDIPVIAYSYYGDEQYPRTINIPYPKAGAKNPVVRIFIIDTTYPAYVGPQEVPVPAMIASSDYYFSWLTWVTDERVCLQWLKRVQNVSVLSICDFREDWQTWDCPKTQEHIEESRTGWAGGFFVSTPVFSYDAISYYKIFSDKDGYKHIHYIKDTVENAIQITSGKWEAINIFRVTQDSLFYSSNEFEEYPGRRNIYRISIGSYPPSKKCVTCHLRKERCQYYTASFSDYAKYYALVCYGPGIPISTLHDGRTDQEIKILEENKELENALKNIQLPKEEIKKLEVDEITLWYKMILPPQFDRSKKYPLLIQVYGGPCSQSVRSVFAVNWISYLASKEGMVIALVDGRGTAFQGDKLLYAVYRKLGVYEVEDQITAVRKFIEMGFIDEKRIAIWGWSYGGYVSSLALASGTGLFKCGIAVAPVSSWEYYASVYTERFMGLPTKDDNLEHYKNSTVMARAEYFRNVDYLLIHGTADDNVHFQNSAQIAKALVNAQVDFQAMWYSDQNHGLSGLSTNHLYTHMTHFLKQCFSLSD

Measured: binding result

B1: DARPin #6 (designed binder)
chain: DLGKKLLEAARAGQDDEVRILMANGADVNASDNWGRTPLHVAAQRGHLEIVDVLLAHGADDNASNRWGSTPLHVAAYTGHLEIVDVLLANGADVNASTANGETPLHAAAHAGHLEIVDVLLKHGADVNAQDKFGKTPFDLAIDNGNEDIAEVLQ
notes: also called designed ankyrin repeat domain #6; not shown: N terminal His6 tag; C terminal FLAG tag
binds: all assays above
